From patent publication US20010016352, “NUCLEIC ACID SEQUENCES CONTROLLING LUNG CELL-SPECIFIC GENE EXPRESSION” (published 2001)

Key:
TTF-1 full length = target: T1, TTF-1 full length (UniProt P23441); assay: cell_activity; details: SV40-P F + pCMV-TTF-1 in H441, relative to SV40-P =1 (3.5 without TTF-1)
T1 sequence: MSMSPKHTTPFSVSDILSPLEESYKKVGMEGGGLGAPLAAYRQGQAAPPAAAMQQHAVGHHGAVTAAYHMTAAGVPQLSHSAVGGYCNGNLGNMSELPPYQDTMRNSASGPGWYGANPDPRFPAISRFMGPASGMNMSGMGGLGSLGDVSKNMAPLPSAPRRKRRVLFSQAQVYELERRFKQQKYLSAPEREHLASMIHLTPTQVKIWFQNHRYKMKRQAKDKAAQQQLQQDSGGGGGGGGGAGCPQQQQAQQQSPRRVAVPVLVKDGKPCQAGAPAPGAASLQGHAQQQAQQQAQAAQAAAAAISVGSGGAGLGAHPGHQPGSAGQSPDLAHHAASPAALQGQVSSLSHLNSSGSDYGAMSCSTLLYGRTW

[1] = target: T2, TTF-1 homeodomain (TTF-1 HD) (Rattus norvegicus, UniProt P23441 P23441:161-220); assay: EMSA; two complexes A' and B'; on ice, 5 mM MgCl2; details: tags: bacterially expressed homeodomain fragment; label: 32P
T2 sequence: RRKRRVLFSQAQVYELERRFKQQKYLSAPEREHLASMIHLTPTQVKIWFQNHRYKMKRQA
Description: The electrophoretic mobility shift assay (EMSA) was adapted from Hennighausen and Lubon, Meth. Enzymol., Vol. 152, pgs. 727-735 (1987). Briefly, nuclear extract (1-2 μl) and, when indicated, unlabeled oligonucleotide competitor DNA were preincubated in 20 μl Buffer C (12 mM HEPES, pH 7.9; 4 mM Tris-Cl pH 7.9; 25 mM KCl; 5 mM MgCl₂; 1 mM EDTA; 1 mM DTT; 50 ng μl⁻¹ poly[d(I-C)], Boehringer Mannheim; 0.2 mM fresh PMSF) for 10 minutes on ice. Probe (100,000 dpm) was added and incubated an additional 20 minutes on ice. For antibody supershift and interference assays, 1 μl of antibody was added after the addition of probe and incubated an additional 20 minutes on ice. TTF-1 antibody is described in Lazzaro et al., Development, Vol. 113, pgs. 1093-1104 (1991). HNF-3α, β, and γ antibodies were kindly provided by Dr. J. E. Darnell, Jr. (Lai et al., Genes and Devel., Vol. 5, pgs. 416-427 (1991)). Recombinant, bacterially expressed TTF-1 homeodomain protein (TTF-1 HD) is described in Guazzi et al., EMBO J., Vol. 9, pgs. 3631-3639 (1990). Assays were performed using 1 μl TTF-1 HD in place of nuclear extract. Bound and free probe were resolved using non-denaturing polyacrylamide gel electrophoresis. […]

[2] = target: T2, TTF-1 homeodomain (TTF-1 HD); assay: EMSA; details: tags: bacterially expressed homeodomain fragment; label: 32P

CAGGGCTTGCCCTGGGTTAAGAGCCAGGCAGGAAGCTCTCAAGAGCATTGCTCAGAGGGGGCCTGGGTGGCCCAGGGAGGGGATGCGAGGGGAACACCCAGGC (double strand) [hSP-B -439/-331 enhancer]
activity (TTF-1 full length): 8.3 fold

B1: SPB-f1 (dsDNA)
DNA 1: AGCACCTGGAGGGCTCTTCAGAGC
DNA 2: GCTCTGAAGAGCCCTCCAGGTGCT
binding result [1]: binds

B2: Ba wild type (dsDNA)
DNA 1: CAGGGCTTGCCCTGGGTTAAGAGCCAGGCA
DNA 2: TGCCTGGCTCTTAACCCAGGGCAAGCCCTG
binding result [2]: binds
